Here are results for five molecules from US10907134B2, “Mutated genes for the catalytic protein of oplophorus luciferase and use thereof” (JNC CORPORATION, priority 2013, dated 2021).

Assay [1] in a line: Luminescence activity of KAZ mutants (pCold II, E. coli) in supernatant and precipitate of crude enzyme solution. Type of assay: biochemical. Conditions: Table 3, pCold II, E. coli BL21, 0.5 μg coelenterazine, 60 seconds; for Relative Luminescence Activity (Imax) Precipitate: 5 μL precipitate; for Relative Luminescence Activity (Imax) Supernatant: 5 μL supernatant. The protocol: In order to express the KAZ mutants in E. coli, the recombinant plasmid prepared in EXAMPLE 3 was used. The E. coli BL21 strain (Novagen, Madison, Wis.) was used as a host cell. The BL21 strain carrying the recombinant plasmid was incubated in 5 mL of Luria-Bertani medium (hereinafter designated as LB medium) containing ampicillin (50 μg/mL) at 37° C. for 18 hours. This seed culture, 0.1 mL, was inoculated to 10 mL of LB medium and incubated for 3 hours, followed by cooling in an ice-water bath for 1 hour. IPTG was added to the culture medium at a final concentration of 1 mM, followed by incubation at 15° C. for further 20 hours. After completion of the incubation, 1 mL of the cultured medium was harvested by centrifugation at 10,000 rpm for 2 minutes. The thus collected E. coli cells were suspended in 0.5 mL of 30 mM Tris-HCl (pH 7.6)-10 mM EDTA (manufactured by Wako Pure Chemical Industries, Ltd.) (hereinafter designated as TE). The E. coli cells were disrupted by sonication for 3 seconds using a Branson Model 250 Sonifier (Danbury, Conn.) to give a crude enzyme solution. After 0.5 mL of the crude enzyme solution was further centrifuged at 10,000 rpm for 2 minutes to separate the supernatant from the precipitate, the precipitate was suspended in 0.5 mL of TE. Then 20 μL each of the supernatant and precipitate were analyzed by SDS-PAGE to confirm the presence or absence of soluble and insoluble proteins. The results are shown in FIG. 1, wherein M and 1 to 17 denote: M: molecular weight size markers; 1: KAZ; 2 KAZ-A4E; 3: KAZ-Q11R; 4: KAZ-Q18L; 5: KAZ-L27V; 6: KAZ-A33N; 7: KAZ-K43R; 8: KAZ-V44I; 9: KAZ-A54I; 10: KAZ-F68D; 11: KAZ-L72Q; 12: KAZ-M75K; 13: KAZ-I90V; 14: KAZ-P115E; 15: KAZ-Q124K; 16: KAZ-Y138I; 17: KAZ-N166R and 18: dnKAZ.
A luminescence reaction was started by the addition of 5 μL each of the supernatant and precipitate obtained in EXAMPLE 4 to 100 μL of TE containing 0.5 μg of coelenterazine (manufactured by JNC Corp.). The luminescence activity was measured for 60 seconds using a luminometer (manufactured by Atto Corp.: AB2200) and expressed in terms of relative luminescence activity (Imax).
To express the KAZ mutants with two amino acid substitutions and three amino acid substitutions in E. coli using a pCold II vector, the recombinant plasmid constructed in EXAMPLE 13 and pCold-V44I-KAZ, pCold-A54I-KAZ, pCold-Y138I-KAZ prepared in EXAMPLE 3 were used. The supernatant and precipitate of each crude enzyme solution were prepared in the same manner as EXAMPLE 4, using the E. coli BL21 starin (Novagen, Madison, Wis.) as a host cell. The supernatant and precipitate, 20 μL each, were subjected to SDS-PAGE analysis to confirm the presence or absence of soluble proteins and insoluble proteins. In FIG. 3, M and 1 to 9 are as follows. M: molecular weight markers; 1: dnKAZ; 2: KAZ; 3: KAZ-V44I-A54I; 4: KAZ-V44I-Y138I; 5: KAZ-A54I-Y138I; 6: KAZ-V44I-A54I-Y138I; 7: KAZ-V44I; 8: KAZ-A54I; and 9: KAZ-Y138I.
The luminescence activities of 5 μL each of the supernatant and precipitate obtained in EXAMPLE 14 were determined in the same manner as EXAMPLE 5. The luminescence activity was assayed with a luminometer (manufactured by Atto Inc.: AB2200) for 60 seconds, and the maximum intensity of luminescence (Imax) was shown as relative luminescence activity.

A short description of assay [2]: Luminescence activity of ZZ-fused KAZ mutants in crude enzyme solutions. The format is biochemical. The note with it: Table 4; ZZ-fused (pCold-ZZ-P-); 1 μL crude enzyme solution, 1 mM DTT; 1 μg coelenterazine. On the procedure: To express the ZZ-fused KAZ mutants in E. coli, the recombinant plasmid prepared in EXAMPLE 6 was used. Crude enzyme solutions were prepared in the same manner as EXAMPLE 4 using the E. coli BL21 strain (Novagen, Madison, Wis.) as a host cell. The resultant crude enzyme solution, 5 μL, was subjected to SDS-PAGE analysis to confirm expression of the proteins (FIG. 2). In FIG. 2, M and 1 to 18 are the same as described in FIG. 1.
DTT was added to the crude enzyme solution obtained in EXAMPLE 7 at a final concentration of 1 mM and the mixture was allowed to stand in an ice water for more than 5 hours. A luminescence reaction was started by adding 1 μL of the crude enzyme solution to 100 μL of TE containing 1 μg of coelenterazine (manufactured by JNC Corp.). The luminescence activity was determined using a luminometer (manufactured by Atto Inc.: AB2200) for 60 seconds, and the maximum intensity of luminescence (Imax) was shown as relative luminescence activity.
To express the ZZ-fused KAZ mutants in E. coli, the recombinant plasmid constructed in EXAMPLE 16 and pCold-ZZ-P-V44I-KAZ, pCold-ZZ-P-A54I-KAZ, pCold-ZZ-P-Y138I-KAZ prepared in EXAMPLE 6 were used. Crude enzyme solutions were prepared in the same manner as EXAMPLE 7, using the E. coli BL21 strain (Novagen, Madison, Wis.) as a host cell. DTT was added to the crude enzyme solutions at a final concentration of 1 mM. The mixtures were allowed to stand over 5 hours on ice, and luminescence activities were then assayed. The luminescence activities were determined by the method described in EXAMPLE 8. Also, 5 μL of the resultant crude enzyme solutions were subjected to SDS-PAGE analysis to confirm protein expression (FIG. 4). In FIG. 4, M and 1 to 9 are as follows. M: molecular weight size markers; 1: ZZ-P-KAZ; 2: ZZ-P-KAZ-V44I; 3: ZZ-P-KAZ-A54I; 4: ZZ-P-KAZ-Y138I; 5: ZZ-P-KAZ-V44I-A54I; 6: ZZ-P-KAZ-V44I-Y138I; 7: ZZ-P-KAZ-A54I-Y138I; 8: ZZ-P-KAZ-V44I-A54I-Y138I; and 9: ZZ-P-dnKAZ.

The next assay has as its system CHO-K1 cells. Put plainly: Luminescence activity of KAZ mutants expressed in animal culture cells with signal peptide of Gaussia luciferase for secretion. The format is cell-based, Chinese hamster. The note with it: Table 5, pcDNA3-GLsp- vectors, CHO-K1, 48 hours, 0.5 μg coelenterazine; for Relative Luminescence Activity (Imax) (%) Cell Extracts: 5 μL cell extracts; for Relative Luminescence Activity (Imax) (%) Culture Medium: 5 μL culture medium. On the procedure:
Chinese hamster ovary cell line CHO-K1 was cultured in Ham's F-12 medium (manufactured by Wako Pure Chemical Industries, Ltd.) supplemented with 10% (v/v) fetal bovine serum (manufactured by Biowest Inc.). The CHO-K1 cells were plated in a 6-well plate in 1×10^5 cells/well/2 mL medium (n=2) and cultured in an incubator at 37° C. in 5% (v/v) CO2. After 24 hours, the purified recombinant plasmid was transfected to CHO-K1 cells using a FuGene HD transfection kit (manufactured by Promega Corp.), which was provided for subsequent experiment. Specifically, 1 μg of the recombinant plasmid pGL4.13 [Luc2/sv40], 0.1 μg of the internal standard vector and 3 μL of FuGene HD were added to 100 μL of the medium, which was allowed to stand at room temperature for 15 minutes. Subsequently, 100 μL of the DNA-FuGene complex was added to the cells in the 6 wells. After incubation for 48 hours, the culture medium was collected. On the other hand, the KAZ mutants expressed in the cells were washed 3 times with 3 mL of 1×PBS, then suspended in 1 mL of 1×PBS and disrupted on ice by ultrasonication, which was used as enzyme solutions of the cell-extracts of KAZ mutants.
A luminescence reaction was started by adding 5 μL of the culture media and cell extracts obtained in EXAMPLE 10 to 100 μL of 30 mM Tris-HCl (pH 7.6)-10 mM EDTA (manufactured by Wako Pure Chemical Industries, Ltd.) containing 0.5 μg of coelenterazine (manufactured by INC Corp.). The luminescence activity was determined using a luminometer (manufactured by Atto Inc.: AB2200) for 60 seconds, and the maximum intensity of luminescence (Imax) was defined as a percentage.
Culture media of the KAZ mutants with two amino acid substitutions and KAZ mutants with three amino acid substitutions and the enzyme solutions of the cell-extracts of KAZ mutants were prepared in the same manner as EXAMPLE 10.
In the resultant enzyme solutions and the enzyme solutions of the cell-extracts of KAZ mutants, luminescence activities were determined in the same manner as EXAMPLE 11.

B1: KAZ-M75K: KAZ with single amino acid substitution M75K (protein)
chain: FTLADFVGDWQQTAGYNQDQVLEQGGLSSLFQALGVSVTPIQKVVLSGENGLKADIHVIIPYEGLSGFQMGLIEKIFKVVYPVDDHHFKIILHYGTLVIDGVTPNMIDYFGRPYPGIAVFDGKQITVTGTLWNGNKIYDERLINPDGSLLFRVTINGVTGWRLCENILA
Take B1: in assay [1], the “Relative Luminescence Activity (Imax) Precipitate” value is recorded as 0.4 and the “Relative Luminescence Activity (Imax) Supernatant” value was 4.6. Also, the “Relative Luminescence Activity (Imax)” value in assay [2] was 1.3. For the same molecule, in the assay on CHO-K1 cells, the “Relative Luminescence Activity (Imax) (%) Cell Extracts” value was 0.2% and the “Relative Luminescence Activity (Imax) (%) Culture Medium” value was “less than 0.01%”.

B2: KAZ-P115E: KAZ with single amino acid substitution P115E (protein)
chain: FTLADFVGDWQQTAGYNQDQVLEQGGLSSLFQALGVSVTPIQKVVLSGENGLKADIHVIIPYEGLSGFQMGLIEMIFKVVYPVDDHHFKIILHYGTLVIDGVTPNMIDYFGRPYEGIAVFDGKQITVTGTLWNGNKIYDERLINPDGSLLFRVTINGVTGWRLCENILA
Turning to B2, in assay [1], the “Relative Luminescence Activity (Imax) Precipitate” value stood at 1.1 and the “Relative Luminescence Activity (Imax) Supernatant” value came out at 16. Also, in assay [2], the “Relative Luminescence Activity (Imax)” value was determined as 4.5. Also, in the assay on CHO-K1 cells, the “Relative Luminescence Activity (Imax) (%) Cell Extracts” value is recorded as 0.3% and the “Relative Luminescence Activity (Imax) (%) Culture Medium” value is “less than 0.01%”.

B3: KAZ-N166R: KAZ with single amino acid substitution N166R (protein)
chain: FTLADFVGDWQQTAGYNQDQVLEQGGLSSLFQALGVSVTPIQKVVLSGENGLKADIHVIIPYEGLSGFQMGLIEMIFKVVYPVDDHHFKIILHYGTLVIDGVTPNMIDYFGRPYPGIAVFDGKQITVTGTLWNGNKIYDERLINPDGSLLFRVTINGVTGWRLCERILA
For the molecule B3, in assay [1], the “Relative Luminescence Activity (Imax) Precipitate” value turned out to be 0.8 and the “Relative Luminescence Activity (Imax) Supernatant” value came to 4.7. Also, the “Relative Luminescence Activity (Imax)” value in assay [2] was 3.6. Besides, in the assay with CHO-K1 cells, the “Relative Luminescence Activity (Imax) (%) Cell Extracts” value is on record as 0.2% and the “Relative Luminescence Activity (Imax) (%) Culture Medium” value is on record as “less than 0.01%”.

B4: KAZ-Q124K: KAZ with single amino acid substitution Q124K (protein)
chain: FTLADFVGDWQQTAGYNQDQVLEQGGLSSLFQALGVSVTPIQKVVLSGENGLKADIHVIIPYEGLSGFQMGLIEMIFKVVYPVDDHHFKIILHYGTLVIDGVTPNMIDYFGRPYPGIAVFDGKKITVTGTLWNGNKIYDERLINPDGSLLFRVTINGVTGWRLCENILA
Turning to B4, in assay [1], the “Relative Luminescence Activity (Imax) Precipitate” value came to 0.8 and the “Relative Luminescence Activity (Imax) Supernatant” value amounted to 7.4. Further, the “Relative Luminescence Activity (Imax)” value in assay [2] came out at 3.7. In the assay on CHO-K1 cells, the “Relative Luminescence Activity (Imax) (%) Cell Extracts” value is on record as 0.3% and the “Relative Luminescence Activity (Imax) (%) Culture Medium” value is “less than 0.01%”.

B5: KAZ-I90V: KAZ with single amino acid substitution I90V (protein)
chain: FTLADFVGDWQQTAGYNQDQVLEQGGLSSLFQALGVSVTPIQKVVLSGENGLKADIHVIIPYEGLSGFQMGLIEMIFKVVYPVDDHHFKVILHYGTLVIDGVTPNMIDYFGRPYPGIAVFDGKQITVTGTLWNGNKIYDERLINPDGSLLFRVTINGVTGWRLCENILA
For the molecule B5, in assay [1], the “Relative Luminescence Activity (Imax) Precipitate” value is given as 0.4 and the “Relative Luminescence Activity (Imax) Supernatant” value was 2.1. Moreover, the “Relative Luminescence Activity (Imax)” value in assay [2] was found to be 1.8. For the same molecule, in the assay on CHO-K1 cells, the “Relative Luminescence Activity (Imax) (%) Cell Extracts” value is recorded as 0.3% and the “Relative Luminescence Activity (Imax) (%) Culture Medium” value was “less than 0.01%”.
